Values of other authors as cited in US20230398266A1, “THERAPEUTIC AGENT FOR USE IN LOCAL TREATMENT OF INFLAMMATION ASSOCIATED WITH ATHEROSCLEROSIS AND/OR A THROMBOTIC STATE” (priority 2020, published 2023).

Assays:
patients with COVID-19 = details: for side effects related to systemic administration: patients with COVID-19; for results in patients with COVID-19: systemic administration, preliminary studies
[1] = system: patients with previous myocardial infarction and elevated inflammatory indices; details: systemic administration; compared to placebo

Substance | side effects related to systemic administration (patients with COVID-19) | results in patients with COVID-19 (patients with COVID-19) | incidence of cardiovascular events (death from heart disease, myocardial infarction, cerebral stroke) [1] | incidence of serious side effects such as fatal sepsis and thrombocythemia [1]
anakinra | severe side effects | encouraging results | – | –
canakinumab | – | – | lower incidence of cardiovascular events compared to placebo | higher incidence of serious side effects
tocilizumab | severe side effects | encouraging results | – | –
